Test results reported in patent US20220125770A1, “COMBINATION THERAPY OF ALK-POSITIVE NEOPLASIA” (Academisch Medisch Centrum, priority 2019, published 2022).

B1: TRAIL: TNF-related apoptosis-inducing ligand; recombinant soluble human TRAIL (Peprotech; His-tagged for in vivo); also doxycycline-induced transgene in SK-N-AS-TRAIL cells (protein, UniProt P50591 39-281, looked up)
extracellular domain: TNELKQMQDKYSKSGIACFLKEDDSYWDPNDEESMNSPCWQVKWQLRQLVRKMILRTSEETISTVQEKQQNISPLVRERGPQRVAAHITGTRGRSNTLSSPNSKNEKALGRKINSWESSRSGHSFLSNLHLRNGELVIHEKGFYYIYSQTYFRFQEEIKENTKNDKQMVQYIYKYTSYPDPILLMKSARNSCWSKDAEYGLYSIYQGGIFELKENDRIFVSVTNEHLIDMDHEASFFGAFLVG
modifications: extracellular domain His tag
notes: TNF-related apoptosis-inducing ligand; recombinant soluble human TRAIL (Peprotech; His-tagged for in vivo); also doxycycline-induced transgene in SK-N-AS-TRAIL cells

Legend:
[1] = system: ADRN-type neuroblastoma cells; assay: Cell viability (MTT) assay, ADRN-type cells of isogenic cell line pairs; type: cell-based, human
Procedure: (§1) Cells were plated in 96-well plates, one day before the addition of Lorlatinib (HY-12215, MedChemExpress) and/or TRAIL (Peprotech) to the culture medium. Seeding densities were optimized for each cell line so that the control, non-treated cells would reach 70-80% confluence by the end of the experiment. […] Metabolic activity was measured by 3-(4,5-dimethylthiazol-2-yl)-2,5-diphenyltetrazolium bromide (MTT) assay, according to the manufacturer's instructions with minor modifications. Sextuple or triplicate measurements were used for each experimental condition. Two-sided t-tests assuming equal variance were used to determine significance. Experiments were repeated at least twice.

[2] = system: MES-type neuroblastoma cells; assay: Cell viability (MTT) assay, MES-type cells of isogenic cell line pairs; type: cell-based, human
Procedure: as §1, with “Cells were plated in 96-well plates, one day before the addition of Lorlatinib (HY-12215, MedChemExpress) and/or TRAIL (Peprotech) to the culture medium.” left out

[3] = system: IMR32 cells (ADRN-type); assay: 3D spheroid co-culture of SK-N-AS-TRAIL cells with IMR32-GFP cells; type: cell-based, human; conditions: doxycycline-induced TRAIL expression, 48 hours, 3D model
Procedure: (§2) Spheroid assays were performed as described^28. A suspension of 10000 cells of 3:1 SKNAS-TRAIL:SH-EP2-GFP or 3:1 SKNAS-TRAIL:IMR32-GFP was added in triplicate to 96 well round bottom suspension plates. After 48 hours incubation with 0 or 300 ng/ml doxycycline bright-field and fluorescent images of the 3D cultures were taken.

[4] = system: mixed culture of SH-SY5Y-GFP (ADRN-type) and SH-EP2-RFP (MES-type) cells; assay: Flow cytometry of mixed cultures of SH-EP2-RFP and SH-SY5Y-GFP cells; type: cell-based, human; conditions: 120 hours, relative to DMSO control
Procedure: GFP and RFP labelled cells were plated at given densities (see Figure description), collected by trypsin treatment, washed twice with FACS buffer and analysed using flow cytometer (BD biosciences) and BD Accuri C6 software.

[5] = system: SK-N-SH (ALK-F1174L) and NBL-W (ALK-R1275L) cell lines; assay: Cell viability (MTT) assay, cell lines with heterogeneous MES and ADRN composition; type: cell-based, human; conditions: Lorlatinib-only or TRAIL-only (100 ng/ml), 120 hours
Procedure: as §1, with “Seeding” for “Cells were plated in 96-well plates, one day before the addition of Lorlatinib (HY-12215, MedChemExpress) and/or TRAIL (Peprotech) to the culture medium. Seeding”

[6] = system: SH-SY5Y xenografts; assay: SH-SY5Y xenograft tumour growth; type: in vivo, NMRI-Foxn1nu/nu mice; conditions: TRAIL 150 μg/day I.P. 4 weeks; Lorlatinib 5 mg/kg twice a day oral 6 weeks; or both
Procedure: For tumour growth assays, 5×10^6 SH-SY5Y cells were suspended in 200 μl of a 50% Matrigel (BD, 354234) solution in PBS and subcutaneously injected in NMRI-Foxn1nu/nu mice (NKI; Janvier). After tumour outgrowth to around 200-250 mm^3, mice were randomized to control or treatment groups. The control group received 150 μl PBS daily intraperitoneally (I.P.) for 4 weeks (day 1-day 28). The TRAIL group received 150 μg/day through I.P. for 4 weeks (day 1-day 28). The Lorlatinib group received 5 mg/kg twice a day through oral gavage for 6 weeks (day 1-day 42) and 4 weeks (day 29-day 56) of PBS (150 μl/day I.P.). The combination group received Lorlatinib twice a day for 6 weeks (day 1-day 42) and 4 weeks TRAIL (day 29-day 56). Tumour size was measured three times a week. Mice were sacrificed at the humane endpoint (tumor size >1500 mm^3), the tumours were isolated and divided in two parts. One tumour piece was fresh frozen in liquid nitrogen and RNA was isolated using Trizol reagent. The other tumour piece was fixed in 4% (w/v) buffered formaldehyde (Klinipath) and embedded in paraffin for histological analyses. In vivo experiments were conducted at the NKI therapeutical intervention unit after ethical approval from the animal experiments committee of the NKI was obtained (AvD:30100 2015 407 appendix 1; WP8156).

[7] = system: SK-N-AS-TRAIL xenografts; assay: SK-N-AS-TRAIL xenograft tumour growth; type: in vivo, NMRI-Foxn1nu/nu mice; conditions: TRAIL induced by doxycycline, established tumours 200 mm^3, five-week doxycycline stimulation
Procedure: For the SK-N-AS-TRAIL xenograft experiments, 1×10^6 cells were suspended in 200 μl of a 50% Matrigel solution in PBS and subcutaneously injected in NMRI-Foxn1nu/nu mice. After tumour outgrowth to around 200-250 mm^3, mice were randomized to control or treatment groups. The DOX group was provided drinking water with 200 μg/ml doxycycline. DOX-containing water was refreshed weekly. Control mice received regular drinking water ad lib. Mice were screened regularly to follow tumour formation and were sacrificed before tumour reached 1500 mm^3. All animal experiments were conducted under the institutional guidelines and according to the law and approved in DAG155 by the AMC animal ethics committee.

[8] = system: SH-EP2 cells (MES-type); assay: 3D spheroid co-culture of SK-N-AS-TRAIL cells with SH-EP2-GFP cells; type: cell-based, human; conditions: doxycycline-induced TRAIL expression, 48 hours, 3D model
Procedure: as §2

[9] = system: SK-N-AS-TRAIL cells; assay: Apoptosis of SK-N-AS-TRAIL cells after doxycycline-induced TRAIL expression in vitro; type: cell-based, human; conditions: doxycycline-induced membrane TRAIL expression, 300 ng/ml doxycycline
Procedure: The SK-N-AS cell line with inducible TRAIL expression was generated by cloning human TRAIL from pUNO1-hTRAILa vector (InvivoGen) into the lentiviral pINDUCER (pIND) system (Invitrogen). Expression of the TRAIL transgene was induced by the addition of doxycycline to the culture medium at a final concentration of 300 ng/ml. SH-SY5Y-GFP, IMR-GFP and SH-EP2-GFP were generated by lentiviral (pLenti, Invitrogen) transduction of turboGFP (SHC003, Sigma) and SH-EP2-RFP by lentiviral (pLenti, invitrogen) transduction of near-infrared fluorescent protein NirFP (Evrogen). […]
To determine the effect of doxycycline-induced TRAIL expression on SK-N-AS cells, 150.000 SK-N-AS-TRAIL cells were seeded in triplicate in 6 well/plates in 2 ml medium supplemented with or without 300 ng/ml doxycycline. Cell number was determined using a coulter counter (Beckman) at every 3rd or 4th day and cells were reseeded at similar cell number as at the start until the end of the experiment. The proliferation factor was defined as the ratio of the cells counted and the cells plated.
Sub-G1 fractions were determined after 72 hours treatment with 300 ng/ml doxycycline. […] After 1 hour incubation, DNA content of the nuclei was analysed using a Accuri C6 flow cytometer (BD biosciences). The cell cycle distribution and apoptotic sub G1 fraction was determined using BD Accuri C6 software.

Row | Molecule | Sensitivity to Alectinib (cell survival) ([1]; isogenic pair with mutant ALK, ADRN-type cells, 120 hours) | Sensitivity to Alectinib (cell survival) ([2]; isogenic pair with mutant ALK, MES-type cells, 120 hours) | Killing of co-cultured ADRN-type IMR32 cells [3] | Effect on ADRN population (SH-SY5Y-GFP) ([4]; Lorlatinib 5 μM or TRAIL 100 ng/ml) | Effect on MES population (SH-EP2-RFP) ([4]; TRAIL 100 ng/ml) | Sensitivity to TRAIL (cell viability) ([1]; four isogenic pairs, ADRN cells, 72 hours of TRAIL treatment) | Cell killing by single-agent treatment [5] | Tumour growth response during treatment [6] | Tumour response of established tumours [7] | Sensitivity to TRAIL (cell viability) ([2]; four isogenic pairs, MES cells, 72 hours of TRAIL treatment) | Killing of co-cultured MES-type SH-EP2 cells [8] | Apoptosis of SK-N-AS-TRAIL cells [9]
1 | CCc1cc2c(cc1N1CCC(N3CCOCC3)CC1)C(C)(C)c1[nH]c3cc(C#N)ccc3c1C2=O [Alectinib, reference compound] | preferential killing | resistance |  |  |  |  |  |  |  |  |  | 
2 | B1 |  |  | not | reduction of the ADRN population | strongly reduced | unaffected | partly killed | did not inhibit tumour growth | complete regression | efficiently killed | killed | apoptosis of a large proportion of the cells
